According to the RNAGym collection of RNA variant scans (doi:10.7554/elife.90254):

B1: LINE1-full (parent)
chain: UACGUAGGUGGUUUUCCCCUGAUAGUGCUAAGGGGGCCUGGAAGUUUGGACUGGGCAGAGCUCAACACAGCGUGGCAAAGUGGCUGUGGCUAGACUGCCUCUCUGGAUUCCUCGUCACUCAGCAGGGCAUCUCUGAGAGAAAUGCC

Variants of: B1
Assay: self-cleavage, relative activity (ratio to wild type); higher = more cleavage; in vitro, sequencing; the parent is a self-cleaving ribozyme

| Variant | self-cleavage |
| --- | --- |
| UACGUAGGUGCUUUUCCCCCGAUAGUGCUAAGGGGGCCUGGAAGUUUGGACUGGGCAGAGCUCAACACAGCGUGGCAAAGUGGCUGUGGCUAGACUGCCUCUCUGGAUUCCUCGUCACUCAGCAGGGCAUCUCUGAGAGAAAUGCC [G11C U20C] | 1.53 |
| UACGUAGGUGGUUUUCCCUUGAUAGUGCUAAGGGGGCCUGGCAGUUUGGACUGGGCAGAGCUCAACACAGCGUGGCAAAGUGGCUGUGGCUAGACUGCCUCUCUGGAUUCCUCGUCACUCAGCAGGGCAUCUCUGAGAGAAAUGCC [C19U A42C] | 0.69 |
| UACGAAGGUGGUUAUCCCCUGAUAGUGCUAAGGGGGCCUGGAAGUUUGGACUGGGCAGAGCUCAACACAGCGUGGCAAAGUGGCUGUGGCUAGACUGCCUCUCUGGAUUCCUCGUCACUCAGCAGGGCAUCUCUGAGAGAAAUGCC [U5A U14A] | 1.15 |
| UACCUAGGUGGUUUUCCCCUGAUAGUGCUAAGGGGGCCUGGAAGUUUGGACUGGGCAGAGCUCAACACAGCGUGGCAAAGUGGCUGUGGCUAGACUGCCUCUCUGGAUUCCUCGUCACUCAGCAGGGCAUCUCUGAGAGAAAUGCC [G4C] | 1.17 |
| UACGUAGGUGGUUUUCCCCUGAUAGUGCUAAGGGGGCCUGGAAGUUUGGACUGGGCAGAACUCAACACAGCGUGGCAAAGUGGCUGUGGCUAGACUGCCCCUCUGGAUUCCUCGUCACUCAGCAGGGCAUCUCUGAGAGAAAUGCC [G60A U100C] | 0.03 |
| UACGUAGGUGGUUUUCCCCUGAUAGUGCUAAGGGGGCCUGGAAGUUUGGACUGGGCAGAGCUCAACACAGCGUGGCAAAGUGGCUGUGGCUAGACUGCCUCUCUGGAUUCCUCGACACUCAGCAGGGCAUCUCUGAGCGAAAUGCC [U115A A138C] | 1.8 |
| UACGUAGGUGGUUUUCCCUUGAUAGUGCUAAGGGGGCCUGGAAGUUUGGACUGGGCAGAGCUCAACACAGCGUGACAAAGUGGCUGUGGCUAGACUGCCUCUCUGGAUUCCUCGUCACUCAGCAGGGCAUCUCUGAGAGAAAUGCC [C19U G75A] | 1.11 |
| UACGUAGGUGGUUUUCCCCUGAUAGUGCUAAGGGGGCCUGGAAGUUCGGCCUGGGCAGAGCUCAACACAGCGUGGCAAAGUGGCUGUGGCUAGACUGCCUCUCUGGAUUCCUCGUCACUCAGCAGGGCAUCUCUGAGAGAAAUGCC [U47C A50C] | 0.94 |
| UACGUAGGUGGUUUUCCCCUGAUAGUGCUAAGGGGGCCUGGAAGUUUGGACUGGGCAGAGCUCAACACAGCGUGGCAAAGUGGCUGUGGCUAGACUGCCUCUCUGGAUUCCUCGUCACUCAGCAGGGCAUCUCUGAGAGAAAUCCC [G144C] | 1.34 |
| UACGUAGGUGGUUUUCCCCUGAUAGUGCUAAAGGGGCCUGGAAGUUUGGACUGGGCAGAGCUCAACACAGCGUGGCAAAGUGGCUGUGGCUAGACUGCCUCUCUGGAUUCCUCGUCACUCAGCAGGGCAUCUCUGAGUGAAAUGCC [G32A A138U] | 0.89 |
| UACGUAGGUGGUUUUCCCCUGAUAGUGCUAAGGGGGCCUGGAAGUUUGGACUGGGCAGAGCUCAACACAGCGUGGCAAAACGGCUGUGGCUAGACUGCCUCUCUGGAUUCCUCGUCACUCAGCAGGGCAUCUCUGAGAGAAAUGCC [G80A U81C] | 1.98 |
| UACGUAGGUGGUUUUCCCCUGAUAGUGCUAAGGGGGCCUGGAAGUUUGGACUGGGCAGAGCUCAACACAGCGUGGCAAAGUGGCUGUGGCUAGACUGCCCCCCUGGAUUCCUCGUCACUCAGCAGGGCAUCUCUGAGAGAAAUGCC [U100C U102C] | 1.65 |
| UACGUAGGUGGCUUUCCCCUGAUAGUGCUAAGGGGGCCUGGAAGUUUGGACUGGGCAGAGCUCAACACAGCGUGGCAAAGUGGCUGUGGCUAGACUGCCUCUCUGGCUUCCUCGUCACUCAGCAGGGCAUCUCUGAGAGAAAUGCC [U12C A107C] | 1.53 |
| UACGUAGGUGGUUUCCCCCUGAUAGUGCUAAGGGGGCCUGGAAGUUUGGACUGGGCAGAGCUCAACACAGCGUGGCAAAGUGGCUGUGGCUAGACUGCCUCUCUGGAUUCCUCGUCACUCAGCAGGGCAUCUCUGAGAGAAAUACC [U15C G144A] | 1.04 |
| UACGUAGGUGGUUUUCCCCUGAUAGUGCUAAGGGGGCCUGGAAAUUCGGACUGGGCAGAGCUCAACACAGCGUGGCAAAGUGGCUGUGGCUAGACUGCCUCUCUGGAUUCCUCGUCACUCAGCAGGGCAUCUCUGAGAGAAAUGCC [G44A U47C] | 1.51 |
| UACGUAGGUGGUUUUCCCCUGAUAGUGCUAAGGGGGCCUGGAAGUUUGGACUGGGCAGAGCUCAACUCAGUGUGGCAAAGUGGCUGUGGCUAGACUGCCUCUCUGGAUUCCUCGUCACUCAGCAGGGCAUCUCUGAGAGAAAUGCC [A67U C71U] | 0.02 |
| UACGUAGGUGGUUUUCCCCUGAUAGUGCUAAGGGGGCCUGGAAGUUUGGACUGGGCAGAGCUCAACACAGCGUGGCAAAGUGGCUGUGGCUAGACUGCCUCUCUGGAUUCCUCGUCACUCAGCAGGGCAUCUCUGGAAGAAAUGCC [A136G G137A] | 2.12 |
| UACGUAGGUGGUUUUCCCCUGAUAGUGCUAAGGGGGCCUGGAAGUUUGGACUGGGCAGAGCUCAACACAGCAUGGCAAAGUGGCUGUGGCUAGACUGCCUCUCUGGAUUCCUCGUCACUCAGCAGGGCAUCCCUGAGAGAAAUGCC [G72A U132C] | 1.13 |
| UACGUAGGUGGUUUUCCCCUGAUAGUGCUGAGGGGGCCUGGAAGUUUGGACUGGGCAGAGCUCAACACAGCGUGGCAAAGUGGCUGUGGCUAGACUGCCUCUCUGGAUUCCUCGUCACUCAGCAGGGCAUCUCUGAGAGAAAUGCU [A30G C146U] | 0.92 |
| UACGUAGGUGGUUUUCCCCUGAUAGUGCUAAGGUGGCCUGGUAGUUUGGACUGGGCAGAGCUCAACACAGCGUGGCAAAGUGGCUGUGGCUAGACUGCCUCUCUGGAUUCCUCGUCACUCAGCAGGGCAUCUCUGAGAGAAAUGCC [G34U A42U] | 1.15 |

| Variant | self-cleavage |
| --- | --- |
| UACGUAGGUGGUUUCCGCCUGAUAGUGCUAAGGGGGCCUGGAAGUUUGGACUGGGCAGAGCUCAACACAGCGUGGCAAAGUGGCUGUGGCUAGACUGCCUCUCUGGAUUCCUCGUCACUCAGCAGGGCAUCUCUGAGAGAAAUGCC [U15C C17G] | 1.13 |
| UACGUAGGUGGUUUUCCCCUGUUAGUGCUAAGGGGGCCUGGAAGUUUGGACUGGGCAGAGCUCAACACAGCGUGGCAAAGUGGCUGUGGCUAGACUGCCUCUCUGGAUUCCUCGUCAUUCAGCAGGGCAUCUCUGAGAGAAAUGCC [A22U C118U] | 1.47 |
| UACGUAGGUGGUUUUCCCCUGAUAGUGCUAAGGGGGCCUGGAAGUUUGGACUGGGCAGAGCUCAACACAGCGUGGCAAAGUGGCUGUGGCUAGACUGCCUCUCUGGAUUCCUCGUCACUCAGCAGGGCAUCUAUGAGAGAAGUGCC [C133A A142G] | 1.4 |
| UACGUAGGUGGUUUUCCCCUGAUAGUGCUAAGGGGGCCUGGAAGUUUGGACUGGGCAGAGCUCAACACAGCGUGGCAAAGUGGCUGUGGCUAGACUGCCUCUCUGGAUUCCUCGUCACUCAGCGGGGCAUCUAUGAGAGAAAUGCC [A124G C133A] | 0.81 |
| UACGUAGGUGGUUUUCCCCUGAUAGUGCUUAGGGGGCCUGGAUGUUUGGACUGGGCAGAGCUCAACACAGCGUGGCAAAGUGGCUGUGGCUAGACUGCCUCUCUGGAUUCCUCGUCACUCAGCAGGGCAUCUCUGAGAGAAAUGCC [A30U A43U] | 0.58 |
| UACGUAGGUGGUUUUCCCCUGAUAGUGCUAAGGGGGCCUGGAAGUUUGGACUGGGCAGAGCUCAACACAGCGUGGCAAAGUGGCUGUGGCUAGACUGCCUCUCUGGAUUCCUCGUCACUCAGCAGGGAAUCUCUGAGAGAAAUGCC [C128A] | 0.7 |
| UACGUAGGUGGUUUUCCCCUGAUAGUGCUAAGGGGGCCUGGAAGUUUGGACUGGGCAGAGCUCAACACAGCGUGGCGAAGUGGCUGUGGCUAGACUGCCUCUCUGGAUUCCUCGUCACUCAGCAGGGCAUCUCUGAGUGAAAUGCC [A77G A138U] | 2.56 |
| UACGUAGGUGGUUUUCCCCUGAUAGUGCUAAGGGGGCCUGGAAGUUGGGACUGGGCAGAGCUCAACACAGCGUGGCAAAGUGGCUGUGGCUAGACCGCCUCUCUGGAUUCCUCGUCACUCAGCAGGGCAUCUCUGAGAGAAAUGCC [U47G U96C] | 0.21 |
| UACGUAGGUGGUUUUCCCCUGAUAGUGCUAAGGGGGCCUGGAAGAUUGGACUGGGCAGAGCUCAACACAGCGUGGCAAAGUGGCUGUGGCUAGACUGCCUCUCUAGAUUCCUCGUCACUCAGCAGGGCAUCUCUGAGAGAAAUGCC [U45A G105A] | 1.56 |
| UACGUAGGUGGUUUUCCCCUGAUAGUGCUAAGGGGGCCUGGAAGUUUGGACUGGGCAGUGCUCAACACAGCGUGGCAAAGUGGCUGUGGCUAGACUGCCUCUCUGGAUUCCUCGUCACUCAGCUGGGCAUCUCUGAGAGAAAUGCC [A59U A124U] | 0.68 |
| UACGUAGGUGGUUUUCCCCUGAUAAUGCUAAGGGGGCCUGGAAGUUUGGACUGGGCAGAGCUCAACACAGCGUGGCAAAGUGGCUGUGGCUAGACUGCCUCUCUGGAUUCCUCGACACUCAGCAGGGCAUCUCUGAGAGAAAUGCC [G25A U115A] | 1.05 |
| UACGUAGGUGGUUUUCCCCUGAUAGUGCUAAGGGGGCCUGGAAGUUUGGACUGGGCAGAGCUCAACACAGUGUGGCAAAGUGGCCGUGGCUAGACUGCCUCUCUGGAUUCCUCGUCACUCAGCAGGGCAUCUCUGAGAGAAAUGCC [C71U U85C] | 0.06 |
| UACGUAGGUGGUUUUCCCCUGAUAGUGCUAAGGGGGCCUGGAAGUUUGGACUGGGCAGAGCUCAACACAGCGUGGCAAAGUGGCUGUGGCUUGUCUGCCUCUCUGGAUUCCUCGUCACUCAGCAGGGCAUCUCUGAGAGAAAUGCC [A92U A94U] | 0.32 |
| UACGUAGGUGGUUUUCCCCUGAUAGUGCUAAGGGGGCCUGGAAGUUUGGACUGGGCAGAGCUCAACACAGCGUGGCAAAAUGGCUGUGGCUAGACUGCCUCUCUGGGUUCCUCGUCACUCAGCAGGGCAUCUCUGAGAGAAAUGCC [G80A A107G] | 2.12 |
| UACGUAGGUGGUUUUCCCCUGAUAGUGCUAAGGGGGCCUGGAAGUUUGGACUGGGCAGAGCUCAACGCAGCGUGGCAAAGUGGCUGUGGCUAGACUGCCUCUCUGGAUUCCUCGACACUCAGCAGGGCAUCUCUGAGAGAAAUGCC [A67G U115A] | 0.61 |
| UACGUAGGUGGUUUUCCCCUGAUAGUGCUAAGGGGGCCUGGAAGUUUGGACUGGGCAGAGCUCAACACAGCUUGGCAAAGUGGCUGUGGCUAGACUGCCUCUCUGGAUUCCUCGUCACUCAGCAGGGCAACUCUGAGAGAAAUGCC [G72U U130A] | 1.07 |
| UACGUAGGUGGUUUUCCCUUGAUAGUGCUAAGGGGGCCUGGAAGUUUGGACUGGGCAGAGCUCAACGCAGCGUGGCAAAGUGGCUGUGGCUAGACUGCCUCUCUGGAUUCCUCGUCACUCAGCAGGGCAUCUCUGAGAGAAAUGCC [C19U A67G] | 0 |
| UACGUAGGUGGGUUUCCCCUGAUAGUGCUAAGGGGGCCUGGAAGUUUGGACUGGGCAGAGCUCAACACAGCGUGGCAAAGUGGCUGUGGCUAAACUGCCUCUCUGGAUUCCUCGUCACUCAGCAGGGCAUCUCUGAGAGAAAUGCC [U12G G93A] | 0 |
| UACGUAGGUGGUUUUCCCCUGAUAGUGCUAAGGGGGCCUGGAAGUUUGGACUGGGCAGAGCUCAACACAGCGUGGCAAGGUGGCUGUGGCUAGACUGCCUCUCUGGAUUCCUCGUCACUGAGCAGGGCAUCUCUGAGAGAAAUGCC [A79G C120G] | 1.08 |
